The target in test [1] is T1, FLAP(S41D) (human, UniProt P20292 1-161, S41D).
T1 sequence (looked up): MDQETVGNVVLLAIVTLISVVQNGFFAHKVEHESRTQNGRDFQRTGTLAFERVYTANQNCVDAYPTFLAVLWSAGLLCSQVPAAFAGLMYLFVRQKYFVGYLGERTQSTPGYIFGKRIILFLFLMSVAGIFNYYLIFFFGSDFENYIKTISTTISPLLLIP
The test can be described thus: cell-based or functional assay.

In test [2] the target is T2, FLAP(S108D) (human, UniProt P20292 1-161, S108D).
T2 sequence (looked up): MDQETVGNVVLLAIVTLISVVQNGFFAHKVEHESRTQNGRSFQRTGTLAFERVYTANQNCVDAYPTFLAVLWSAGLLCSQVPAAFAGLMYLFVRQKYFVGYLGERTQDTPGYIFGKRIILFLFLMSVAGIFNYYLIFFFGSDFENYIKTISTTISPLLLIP
The experiment in a line: cell-based or functional assay.

For test [3], the target named is T3, FLAP(T109C) (human, UniProt P20292 1-161, T109C).
T3 sequence (looked up): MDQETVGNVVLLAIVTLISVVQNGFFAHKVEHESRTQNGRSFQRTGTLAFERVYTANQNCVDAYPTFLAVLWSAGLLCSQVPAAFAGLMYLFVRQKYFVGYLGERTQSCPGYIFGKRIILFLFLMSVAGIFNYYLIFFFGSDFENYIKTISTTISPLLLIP
The test can be described thus: cell-based or functional assay.

The target in test [4] is T4, FLAP(S108Δ) (human) (UniProt P20292).
T4 sequence: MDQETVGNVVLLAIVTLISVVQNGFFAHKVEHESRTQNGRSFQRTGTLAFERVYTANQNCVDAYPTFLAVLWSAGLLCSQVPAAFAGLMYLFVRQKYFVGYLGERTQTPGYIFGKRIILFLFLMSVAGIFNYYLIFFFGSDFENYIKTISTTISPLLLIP

B1: 5-lipoxygenase (enzyme, human, UniProt P09917 1-674, looked up)
chain: MPSYTVTVATGSQWFAGTDDYIYLSLVGSAGCSEKHLLDKPFYNDFERGAVDSYDVTVDEELGEIQLVRIEKRKYWLNDDWYLKYITLKTPHGDYIEFPCYRWITGDVEVVLRDGRAKLARDDQIHILKQHRRKELETRQKQYRWMEWNPGFPLSIDAKCHKDLPRDIQFDSEKGVDFVLNYSKAMENLFINRFMHMFQSSWNDFADFEKIFVKISNTISERVMNHWQEDLMFGYQFLNGCNPVLIRRCTELPEKLPVTTEMVECSLERQLSLEQEVQQGNIFIVDFELLDGIDANKTDPCTLQFLAAPICLLYKNLANKIVPIAIQLNQIPGDENPIFLPSDAKYDWLLAKIWVRSSDFHVHQTITHLLRTHLVSEVFGIAMYRQLPAVHPIFKLLVAHVRFTIAINTKAREQLICECGLFDKANATGGGGHVQMVQRAMKDLTYASLCFPEAIKARGMESKEDIPYYFYRDDGLLVWEAIRTFTAEVVDIYYEGDQVVEEDPELQDFVNDVYVYGMRGRKSSGFPKSVKSREQLSEYLTVVIFTASAQHAAVNFGQYDWCSWIPNAPPTMRAPPPTAKGVVTIEQIVDTLPDRGRSCWHLGAVWALSQFQENELFLGMYPEEHFIEKPVKEAMARFRKNLEAIVSVIAERNKKKQLPYYYLSPDRIPNSVAI
For B1, the “ratio of 5‐H(P)ETE to trans‐isomers of LTB4 formed in HEK293 cells co-expressing 5-LOX and the FLAP mutant (2.5 μM A23187 plus 2 μM AA, vehicle); wildtype about 1.2” value in test [1] worked out at 2.3; in test [2], 2; in test [3] it was 2.6; in test [4], 3.2.

The record behind these values is article PMC12338864, “Modifications in FLAP's second cytosolic loop influence 5‐LOX interaction, inhibitor binding, and leukotriene formation” (Febs Letters, 2025).
